# Assay results taken from patent US12295987B2, “Method of using a GIP/GLP1 co-agonist for diabetes” (Eli Lilly and Company, priority 2018, dated 2025).
# Target: T1, human gastric inhibitory peptide receptor (hGIPR) (Homo sapiens, UniProt P48546)
# T1 construct: expressed in transfected cells; host or cells: HEK293
# T1 sequence (P48546 22-466): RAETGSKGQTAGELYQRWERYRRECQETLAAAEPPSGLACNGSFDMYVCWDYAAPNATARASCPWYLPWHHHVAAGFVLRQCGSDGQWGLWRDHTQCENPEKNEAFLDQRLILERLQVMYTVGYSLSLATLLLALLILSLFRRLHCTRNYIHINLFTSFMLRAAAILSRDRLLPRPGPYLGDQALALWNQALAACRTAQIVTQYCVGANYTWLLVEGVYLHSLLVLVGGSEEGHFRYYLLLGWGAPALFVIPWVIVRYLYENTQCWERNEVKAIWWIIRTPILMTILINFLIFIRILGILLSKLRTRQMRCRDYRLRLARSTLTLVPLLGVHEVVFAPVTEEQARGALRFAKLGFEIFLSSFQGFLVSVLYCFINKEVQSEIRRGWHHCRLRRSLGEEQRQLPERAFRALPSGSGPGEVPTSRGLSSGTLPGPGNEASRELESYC
# Test: cAMP pharmacological functional assay in presence of 0.1% casein, hGIPR
# Assay type: cell-based
# Settings: ratio of hGIPR to hGLP1R cAMP EC50 ratios
row,Substance,[hGIPR/hGLP1R] EC50 Ratio
1,"Y-Aib-EGT-αMeF-TSDYSI-αMeL-LDEK((2-[2-(2-Amino-ethoxy)-ethoxy]-acetyl)2-(γGlu)-CO—(CH2)16—CO2H)AQ-Aib-EFI-(D-Glu)-YLIEGGPSSGAPPPS-NH2 (YXEGTXTSDYSIXLDEKAQXEFIXYLIEGGPSSGAPPPS; Aib, αMeF, αMeL, D-Glu; lipidated K; amide; (2)..(2) Xaa at position 2 is Aib; (6)..(6) Xaa at position 6 is alpha-methyl-Phe; (13)..(13) Xaa at position 13 is alpha-methyl-Leu; MOD_RES (17)..(17) Lys at position 17 is chemically modified by conjugation of the epsilon-amino group of the Lys side chain with (2-[2-(2-amino-ethoxy)-ethoxy]-acetyl)2-(gamma-Glu)-CO-(CH2)16- CO2H; (20)..(20) Xaa at position 20 is Aib; (24)..(24) Xaa at position 2) [Peptide 213]",5.58
2,"Y-Aib-EGT-αMeF-TSDYSI-αMeL-LDEK((2-[2-(2-Amino-ethoxy)-ethoxy]-acetyl)2-(γGlu)-CO—(CH2)18—CO2H)AQ-Aib-AFIEYLIEGGPSSGAPPPS-NH2 (YXEGTXTSDYSIXLDEKAQXAFIEYLIEGGPSSGAPPPS; Aib, αMeF, αMeL; acylated lysine C20 diacid; amide; (2)..(2) Xaa at position 2 is Aib; (6)..(6) Xaa at position 6 is alpha-methyl-Phe; (13)..(13) Xaa at position 13 is alpha-methyl-Leu; MOD_RES (17)..(17) Lys at position 17 is chemically modified by conjugation of the epsilon-amino group of the Lys side chain with (2-[2-(2-amino-ethoxy)-ethoxy]-acetyl)2-(gamma-Glu)-CO-(CH2)18- CO2H; (20)..(20) Xaa at position 20 is Aib; MOD_RES (39)..(39) Ser at po) [Peptide 115]",2.49
3,"Y-Aib-EGT-αMeF-TSDYSI-αMeL-LDEK((2-[2-(2-Amino-ethoxy)-ethoxy]-acetyl)2-(γGlu)-CO—(CH2)18—CO2H)AQ-Aib-EFI-(D-Glu)-YLIEGGPSSGAPPPS-NH2 (YXEGTXTSDYSIXLDEKAQXEFIXYLIEGGPSSGAPPPS; Aib, αMeF, αMeL, D-Glu; lipidated K; amide; (2)..(2) Xaa at position 2 is Aib; (6)..(6) Xaa at position 6 is alpha-methyl-Phe; (13)..(13) Xaa at position 13 is alpha-methyl-Leu; MOD_RES (17)..(17) Lys at position 17 is chemically modified by conjugation of the epsilon-amino group of the Lys side chain with (2-[2-(2-amino-ethoxy)-ethoxy]-acetyl)2-(gamma-Glu)-CO-(CH2)18- CO2H; (20)..(20) Xaa at position 20 is Aib; (24)..(24) Xaa at position 2) [Peptide 227]",4.42
4,"Y-Aib-EGT-αMeF-TSDYSI-αMeL-LDKK((2-[2-(2-Amino-ethoxy)-ethoxy]-acetyl)2-(γGlu)2-CO—(CH2)18—CO2H)AQ-Aib-AFIEYLIEGGPSSGAPPPS-NH2 (YXEGTXTSDYSIXLDKKAQXAFIEYLIEGGPSSGAPPPS; Aib, αMeF, αMeL; acylated lysine C20 diacid; amide; (2)..(2) Xaa at position 2 is Aib; (6)..(6) Xaa at position 6 is alpha-methyl-Phe; (13)..(13) Xaa at position 13 is alpha-methyl-Leu; MOD_RES (17)..(17) Lys at position 17 is chemically modified by conjugation of the epsilon-amino group of the Lys side chain with (2-[2-(2-amino-ethoxy)-ethoxy]-acetyl)2-(gamma-Glu)2-CO-(CH2)18- CO2H; (20)..(20) Xaa at position 20 is Aib; MOD_RES (39)..(39) Ser at p) [Peptide 125]",2.89
5,"Y-Aib-EGT-αMeF-TSDYSI-αMeL-LDKK((2-[2-(2-Amino-ethoxy)-ethoxy]-acetyl)2-(γGlu)-CO—(CH2)18—CO2H)AQ-Aib-AFIEYLIEAGPSSGAPPPS-NH2 (YXEGTXTSDYSIXLDKKAQXAFIEYLIEAGPSSGAPPPS; Aib, αMeF, αMeL; acylated lysine C20 diacid; amide; (2)..(2) Xaa at position 2 is Aib; (6)..(6) Xaa at position 6 is alpha-methyl-Phe; (13)..(13) Xaa at position 13 is alpha-methyl-Leu; MOD_RES (17)..(17) Lys at position 17 is chemically modified by conjugation of the epsilon-amino group of the Lys side chain with (2-[2-(2-amino-ethoxy)-ethoxy]-acetyl)2-(gamma-Glu)-CO-(CH2)18- CO2H; (20)..(20) Xaa at position 20 is Aib; MOD_RES (39)..(39) Ser at po) [Peptide 126]",2.91
6,"Y-Aib-EGT-αMeF-TSDYSI-αMeL-LDKK((2-[2-(2-Amino-ethoxy)-ethoxy]-acetyl)2-(γGlu)-CO—(CH2)18—CO2H)AQ-Aib-AFIEYLIEGGPSSGAPPPS-NH2 (YXEGTXTSDYSIXLDKKAQXAFIEYLIEGGPSSGAPPPS; Aib, αMeF, αMeL, lipidated Lys, C-terminal amide; (2)..(2) Xaa at position 2 is Aib; (6)..(6) Xaa at position 6 is alpha-methyl-Phe; (13)..(13) Xaa at position 13 is alpha-methyl-Leu; MOD_RES (17)..(17) Lys at position 17 is chemically modified by conjugation of the epsilon-amino group of the Lys side chain with (2-[2-(2-amino-ethoxy)-ethoxy]-acetyl)2-(gamma-Glu)-CO-(CH2)18- CO2H; (20)..(20) Xaa at position 20 is Aib; MOD_RES (39)..(39) Ser at po) [Peptide 69]",3.21
7,"Y-Aib-EGT-αMeF-TSDYSI-αMeL-LDKK((2-[2-(2-Amino-ethoxy)-ethoxy]-acetyl)2-(γGlu)-CO—(CH2)18—CO2H)AQ-Aib-Aad-FIEYLIEGGPSSGAPPPS-NH2 (YXEGTXTSDYSIXLDKKAQXXFIEYLIEGGPSSGAPPPS; Aib, Aad, αMeF, αMeL; acylated lysine C20 diacid; amide; (2)..(2) Xaa at position 2 is Aib; (6)..(6) Xaa at position 6 is alpha-methyl-Phe; (13)..(13) Xaa at position 13 is alpha-methyl-Leu; MOD_RES (17)..(17) Lys at position 17 is chemically modified by conjugation of the epsilon-amino group of the Lys side chain with (2-[2-(2-amino-ethoxy)-ethoxy]-acetyl)2-(gamma-Glu)-CO-(CH2)18- CO2H; (20)..(20) Xaa at position 20 is Aib; (21)..(21) Xaa at position 2) [Peptide 137]",3.58
8,"Y-Aib-EGT-αMeF-TSDYSI-αMeL-LDKK((2-[2-(2-Amino-ethoxy)-ethoxy]-acetyl)2-(γGlu)-CO—(CH2)18—CO2H)AQ-Aib-Aib-FIEYLIEGGPSSGAPPPS-NH2 (YXEGTXTSDYSIXLDKKAQXXFIEYLIEGGPSSGAPPPS; Aib, αMeF, αMeL; acylated lysine C20 diacid; amide; (2)..(2) Xaa at position 2 is Aib; (6)..(6) Xaa at position 6 is alpha-methyl-Phe; (13)..(13) Xaa at position 13 is alpha-methyl-Leu; MOD_RES (17)..(17) Lys at position 17 is chemically modified by conjugation of the epsilon-amino group of the Lys side chain with (2-[2-(2-amino-ethoxy)-ethoxy]-acetyl)2-(gamma-Glu)-CO-(CH2)18- CO2H; (20)..(20) Xaa at position 20 is Aib; (21)..(21) Xaa at position 2) [Peptide 143]",3.89
9,"Y-Aib-EGT-αMeF-TSDYSI-αMeL-LDKK((2-[2-(2-Amino-ethoxy)-ethoxy]-acetyl)2-(γGlu)-CO—(CH2)18—CO2H)AQ-Aib-DFIEYLIEGGPSSGAPPPS-NH2 (YXEGTXTSDYSIXLDKKAQXDFIEYLIEGGPSSGAPPPS; Aib, αMeF, αMeL; acylated lysine C20 diacid; amide; (2)..(2) Xaa at position 2 is Aib; (6)..(6) Xaa at position 6 is alpha-methyl-Phe; (13)..(13) Xaa at position 13 is alpha-methyl-Leu; MOD_RES (17)..(17) Lys at position 17 is chemically modified by conjugation of the epsilon-amino group of the Lys side chain with (2-[2-(2-amino-ethoxy)-ethoxy]-acetyl)2-(gamma-Glu)-CO-(CH2)18- CO2H; (20)..(20) Xaa at position 20 is Aib; MOD_RES (39)..(39) Ser at po) [Peptide 140]",3.24
